Assays:
Streptavidin [1] = target: T1, Streptavidin (UniProt P22629 37-163, limits assumed); experiment: polyreactivity ELISA, coated antigen
Experimental: (§1) Polyreactivity was tested using an ELISA-based read out. A set of different antigens depicted in Table 9 was coated on a Nunc MaxiSorp microtiter plate (Fisher Scientific) overnight at 4° C. with a concentration of 1 μg/ml in Dulbecco's phosphate buffered saline (DPBS, PAN Biotech #P04-36500) each. After washing the plate two times using PBS (Roche Diagnostics #11666789001) containing 0.1% Tween-20, plates were blocked with DPBS, 2% bovine serum albumin (BSA, Roche Diagnostics #10735108001) for 1 hour at room temperature. After washing the plate three times, the HER2 TCBs were added with a concentration of 1 μg/ml diluted in DPBS and incubated for 1 hour at room temperature. Subsequently, plates were washed three times and an anti-human IgG F(ab′)2-HRP (Jackson ImmunoResearch #109-036-006) diluted 1:5000 in PBS, 0.5% BSA, 0.05% Tween-20 was added. After incubation for 1 hour at room temperature and washing for four times, TMB substrate (Sigma-Aldrich #T0440) was added and absorption was measured at 370/492 nm.

Bovine Serum Albumin [2] = target: T2, Bovine Serum Albumin (bovine, UniProt P02769 25-607); experiment: polyreactivity ELISA, coated antigen
T2 construct: also called BSA
Experimental: as §1

Histone H4 aa2-24 [3] = target: T3, Histone H4 aa2-24 (UniProt P62805 2-24); experiment: polyreactivity ELISA, coated antigen
T3 construct: range 2-24
Experimental: as §1

Streptavidin [4] = target: T1, Streptavidin; experiment: polyreactivity ELISA, coated antigen 1 µg/ml, TCB 1 µg/ml
Experimental: as §1

Hemocyanin = experiment: as above
Experimental: as §1

Bovine Serum Albumin [5] = target: T2, Bovine Serum Albumin; experiment: as above
Experimental: as §1

Insulin = experiment: as above
Experimental: as §1

Apolipoprotein A-1 = experiment: as above
Experimental: as §1

HSP90 = experiment: as above
Experimental: as §1

Gelatine (2%) = experiment: as above
Experimental: as §1

[6] = target: human CD3ε (coated antigen of the polyreactivity ELISA) (human, UniProt P07766 23-126, limits assumed); experiment: as above
Experimental: as §1

Histone H4 aa2-24 [7] = target: T3, Histone H4 aa2-24; experiment: as above
Experimental: as §1

[8] = target: T4, Biotinylated human CD3ε stalk-Fc (knob)-Avi / CD3δ stalk-Fc (hole) (human, biotinylated); experiment: SPR (Biacore T200), biotinylated CD3ε/δ-Fc on SA chip, TCB as analyte, 25 °C, 1:1 fit
T4 construct: also called human CD3ε/δ
Experimental: (§2) CD3 binding was investigated using surface plasmon resonance (SPR) on a Biacore T200 instrument (Cytiva). All experiments were performed at 25° C. using HEPES buffered saline (20 mM HEPES, 140 mM NaCl, 0.05% PS-20) pH 7.4. The experimental setup is schematically depicted in FIG. 3.
(§3) Biotinylated human and cynomolgus CD3ε stalk-Fc (knob)-Avi/[…] stalk-Fc (hole) (CD3E/8, see SEQ ID NOs 49 and 50 (human) and SEQ ID NOs 51 and 52 (cynomolgus)) were coupled to a Series S Sensor Chip SA (Cytiva, #29104992) according to the manufacturer's instructions. A concentration series ranging from 0.37 to 300 nM (1:3) of the TCB antibody molecules were injected with 90 s association time, followed by a buffer wash of 300 s for monitoring the dissociation phase. Bulk refractive index differences were corrected by subtracting the response obtained from a mock surface. Blank injections were subtracted (double referencing). Kinetic constants were derived using the Biacore T200 Evaluation Software (Cytiva), to fit rate equations for 1:1 Langmuir binding by numerical integration. The half-life (t_{1/2}) of the interaction was calculated using the formula t_{1/2}=ln2/koff.

[9] = target: T5, Biotinylated cynomolgus CD3ε stalk-Fc (knob)-Avi / CD3δ stalk-Fc (hole) (cynomolgus, biotinylated); experiment: as above
T5 construct: Heterodimer of CD3 epsilon and CD3 delta ectodomains fused to Fc knob/hole; also called cynomolgus CD3ε/δ; cyno CD3
Experimental: as §2, §3

[10] = target: T6, Human CD3 on Jurkat NFAT reporter cells (human, UniProt P07766 23-207); experiment: flow cytometry on CD3-expressing Jurkat NFAT reporter cells, PE-conjugated anti-human IgG Fc secondary antibody, median fluorescence intensity
T6 construct: CD3 complex on the cell surface; also called CD3 on Jurkat cells; CD3 antigen (expressed on Jurkat-NFAT reporter cells)
Experimental: The antibody staining was performed in a 96-well round bottom plate. Therefore 200′000 cells were seeded per well.

T5 sequence (chain, as listed by the source mutant limits assumed, chain 1 of 2): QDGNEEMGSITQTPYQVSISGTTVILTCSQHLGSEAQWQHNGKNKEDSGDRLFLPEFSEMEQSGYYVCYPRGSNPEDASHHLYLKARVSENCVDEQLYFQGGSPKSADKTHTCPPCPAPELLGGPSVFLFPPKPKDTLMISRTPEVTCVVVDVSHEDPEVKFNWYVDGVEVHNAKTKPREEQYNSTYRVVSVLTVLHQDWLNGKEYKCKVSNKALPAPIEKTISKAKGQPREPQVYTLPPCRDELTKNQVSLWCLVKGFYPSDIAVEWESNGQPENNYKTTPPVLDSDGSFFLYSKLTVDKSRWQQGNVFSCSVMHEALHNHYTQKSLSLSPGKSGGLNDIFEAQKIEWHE
T5 sequence (chain, as listed by the source mutant limits assumed, chain 2 of 2): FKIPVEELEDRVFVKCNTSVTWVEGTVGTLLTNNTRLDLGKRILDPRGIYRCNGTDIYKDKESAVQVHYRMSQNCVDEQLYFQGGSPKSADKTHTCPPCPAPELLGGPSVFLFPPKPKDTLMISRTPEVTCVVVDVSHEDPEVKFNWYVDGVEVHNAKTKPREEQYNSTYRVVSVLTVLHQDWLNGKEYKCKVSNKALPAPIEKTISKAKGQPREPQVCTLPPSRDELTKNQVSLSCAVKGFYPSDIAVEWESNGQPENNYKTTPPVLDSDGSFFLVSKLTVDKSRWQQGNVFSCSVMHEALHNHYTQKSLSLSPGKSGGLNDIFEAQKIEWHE
T1 sequence (P22629 37-163 limits assumed): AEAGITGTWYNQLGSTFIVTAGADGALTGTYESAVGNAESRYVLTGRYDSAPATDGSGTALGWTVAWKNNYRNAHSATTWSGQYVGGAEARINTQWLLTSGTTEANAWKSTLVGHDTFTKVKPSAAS
human CD3ε (coated antigen of the polyreactivity ELISA), sequence (P07766 23-126 limits assumed): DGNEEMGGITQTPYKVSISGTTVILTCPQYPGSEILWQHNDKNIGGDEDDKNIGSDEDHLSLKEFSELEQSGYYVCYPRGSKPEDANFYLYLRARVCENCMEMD
T4 sequence (chain, as listed by the source mutant limits assumed, chain 1 of 2): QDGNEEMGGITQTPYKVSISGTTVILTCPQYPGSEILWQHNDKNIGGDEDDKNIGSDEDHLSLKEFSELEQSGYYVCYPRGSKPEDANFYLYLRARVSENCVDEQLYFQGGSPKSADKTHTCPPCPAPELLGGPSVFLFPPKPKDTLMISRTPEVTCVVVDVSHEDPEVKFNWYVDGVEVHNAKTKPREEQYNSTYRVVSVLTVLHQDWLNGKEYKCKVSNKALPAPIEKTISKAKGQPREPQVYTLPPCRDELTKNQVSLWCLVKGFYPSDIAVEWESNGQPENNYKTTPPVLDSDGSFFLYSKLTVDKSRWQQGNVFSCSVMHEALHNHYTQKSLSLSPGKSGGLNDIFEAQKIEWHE
T4 sequence (chain, as listed by the source mutant limits assumed, chain 2 of 2): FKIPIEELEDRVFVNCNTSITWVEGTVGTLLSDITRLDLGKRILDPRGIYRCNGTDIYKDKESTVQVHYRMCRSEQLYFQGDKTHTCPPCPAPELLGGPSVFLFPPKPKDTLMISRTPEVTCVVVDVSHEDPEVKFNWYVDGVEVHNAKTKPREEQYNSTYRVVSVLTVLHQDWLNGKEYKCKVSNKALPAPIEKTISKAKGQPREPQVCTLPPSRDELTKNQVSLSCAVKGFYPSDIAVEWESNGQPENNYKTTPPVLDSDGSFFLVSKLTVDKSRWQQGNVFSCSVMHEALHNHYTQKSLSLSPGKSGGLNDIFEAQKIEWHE
Apolipoprotein A-1, sequence (P02647 25-267): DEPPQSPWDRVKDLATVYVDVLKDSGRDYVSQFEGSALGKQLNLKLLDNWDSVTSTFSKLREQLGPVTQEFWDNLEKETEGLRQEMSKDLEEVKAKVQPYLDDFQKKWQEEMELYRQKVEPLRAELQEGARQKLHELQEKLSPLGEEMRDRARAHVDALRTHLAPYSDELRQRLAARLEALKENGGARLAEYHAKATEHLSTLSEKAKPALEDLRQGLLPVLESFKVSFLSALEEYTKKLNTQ
T2 sequence (P02769 25-607 limits assumed): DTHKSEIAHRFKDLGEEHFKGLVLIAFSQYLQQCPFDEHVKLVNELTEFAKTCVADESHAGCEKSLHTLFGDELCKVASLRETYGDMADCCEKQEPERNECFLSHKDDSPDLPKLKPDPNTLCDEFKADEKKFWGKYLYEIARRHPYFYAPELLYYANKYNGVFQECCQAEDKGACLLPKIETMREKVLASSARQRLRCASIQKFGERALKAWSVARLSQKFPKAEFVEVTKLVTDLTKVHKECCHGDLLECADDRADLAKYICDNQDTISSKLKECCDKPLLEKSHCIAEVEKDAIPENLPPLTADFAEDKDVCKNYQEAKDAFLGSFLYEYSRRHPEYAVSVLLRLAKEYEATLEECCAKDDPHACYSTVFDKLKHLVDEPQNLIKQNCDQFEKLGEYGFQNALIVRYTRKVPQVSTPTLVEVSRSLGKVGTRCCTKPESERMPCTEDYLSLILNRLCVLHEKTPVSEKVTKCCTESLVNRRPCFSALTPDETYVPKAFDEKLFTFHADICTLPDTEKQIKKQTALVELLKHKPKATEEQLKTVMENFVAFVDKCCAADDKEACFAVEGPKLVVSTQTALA
T6 sequence (P07766 23-207 limits assumed): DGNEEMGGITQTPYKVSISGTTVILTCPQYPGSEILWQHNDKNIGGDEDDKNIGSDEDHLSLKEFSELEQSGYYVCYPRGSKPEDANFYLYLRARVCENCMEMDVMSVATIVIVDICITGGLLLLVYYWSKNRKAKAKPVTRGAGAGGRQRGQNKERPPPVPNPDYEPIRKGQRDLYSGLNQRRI

Row | Binder | binding result (Streptavidin [1]) | binding result (Bovine Serum Albumin [2]) | binding result (Histone H4 aa2-24 [3]) | Absorbance (OD) (Streptavidin [4]) | Absorbance (OD) (Hemocyanin) | Absorbance (OD) (Bovine Serum Albumin [5]) | Absorbance (OD) (Insulin) | Absorbance (OD) (Apolipoprotein A-1) | Absorbance (OD) (HSP90) | Absorbance (OD) (Gelatine (2%)) | Absorbance (OD) [6] [OD] | Absorbance (OD) (Histone H4 aa2-24 [7]) | Kd [8] [nM] | t1/2 [8] [s] | Kd [9] [nM] | t1/2 [9] [s] | EC50 (read off the curve) [10] [nM]
1 | HER2-TCB containing the parental CD3 binder P1AH4929 / CD3orig (bispecific antibody, human IgG1, kappa, L234A L235A, 2+1 IgG CrossFab, inverted: VH/VL exchange in the CD3 Fab, charge modifications in the two HER2 Fabs, knob-into-hole and P329G LALA in the Fc; also called PIAH4929) heavy 1: not shown heavy 2: not shown light 1: EVQLLESGGGLVQPGGSLRLSCAASGFTFSSYAMNWVRQAPGKGLEWVSRIRSKYNNYATYYADSVKGRFTISRDDSKNTLYLQMNSLRAEDTAVYYCVRASNFPASYVSYFAYWGQGTLVTVSSASVAAPSVFIFPPSDEQLKSGTASVVCLLNNFYPREAKVQWKVDNALQSGNSQESVTEQDSKDSTYSLSSTLTLSKADYEKHKVYACEVTHQGLSSPVTKSFNRGEC light 2: not shown | no binding (tested: 1 µg/ml) | no binding (tested: 1 µg/ml) | no binding (tested: 1 µg/ml) | 0 | 0.02 | 0 | 0.01 | 0 | 0.02 | -0.01 | 2.87 | 0.05 | 0.2 | 529 | 0.2 | 519 | ~6
2 | HER2-TCB containing the optimized CD3 binder P1AI7915 (bispecific antibody, human IgG1, kappa, L234A L235A, 2+1 IgG CrossFab, inverted; also called P1AI7915 (in TCB format)) heavy 1: not shown heavy 2: not shown light 1: EVQLLESGGGLVQPGGSLRLSCAASGFTFSSYAMNWVRQAPGKGLEWVGRQRTQYNNREDYYADSVKGRFTISRDDSKNTLYLQMNSLRAEDTAVYYCVRASNFPASYVSYFAYWGQGTLVTVSSASVAAPSVFIFPPSDEQLKSGTASVVCLLNNFYPREAKVQWKVDNALQSGNSQESVTEQDSKDSTYSLSSTLTLSKADYEKHKVYACEVTHQGLSSPVTKSFNRGEC light 2: not shown | no binding (tested: 1 µg/ml) | no binding (tested: 1 µg/ml) | no binding (tested: 1 µg/ml) | 0 | 0.08 | 0.01 | 0.04 | 0.01 | 0.07 | 0.01 | 2.99 | 0.07 | 11.5 | 30 | 9.7 | 31 | 
3 | HER2-TCB containing the optimized CD3 binder P1AI7913 (bispecific antibody, human IgG1, kappa, L234A L235A, 2+1 IgG CrossFab, inverted: VH/VL exchange in the CD3 Fab, charge modifications in the two HER2 Fabs, knob-into-hole and P329G LALA in the Fc; also called P1AI7913 (in TCB format)) heavy 1: not shown heavy 2: not shown light 1: EVQLLESGGGLVQPGGSLRLSCAASGFTFSSYAMNWVRQAPGKGLEWVGRVRTKYNNREPYYADSVKGRFTISRDDSKNTLYLQMNSLRAEDTAVYYCVRASNFPASYVSYFAYWGQGTLVTVSSASVAAPSVFIFPPSDEQLKSGTASVVCLLNNFYPREAKVQWKVDNALQSGNSQESVTEQDSKDSTYSLSSTLTLSKADYEKHKVYACEVTHQGLSSPVTKSFNRGEC light 2: not shown | no binding (tested: 1 µg/ml) | no binding (tested: 1 µg/ml) | no binding (tested: 1 µg/ml) | 0.01 | 0.07 | 0.01 | 0.04 | 0.01 | 0.03 | 0.01 | 2.83 | 0.06 | 1.5 | 81 | 1.3 | 81 | 
4 | HER2-TCB containing the optimized CD3 binder P1AI7912 (bispecific antibody, human IgG1, kappa, L234A L235A, 2+1 IgG CrossFab, inverted: VH/VL exchange in the CD3 Fab, charge modifications in the two HER2 Fabs, knob-into-hole and P329G LALA in the Fc; also called P1AI7912 (in TCB format)) heavy 1: not shown heavy 2: not shown light 1: EVQLLESGGGLVQPGGSLRLSCAASGFTFSSYAMNWVRQAPGKGLEWVGRVRTTYNNREPYYADSVKGRFTISRDDSKNTLYLQMNSLRAEDTAVYYCVRASNFPASYVSYFAYWGQGTLVTVSSASVAAPSVFIFPPSDEQLKSGTASVVCLLNNFYPREAKVQWKVDNALQSGNSQESVTEQDSKDSTYSLSSTLTLSKADYEKHKVYACEVTHQGLSSPVTKSFNRGEC light 2: not shown | no binding (tested: 1 µg/ml) | no binding (tested: 1 µg/ml) | no binding (tested: 1 µg/ml) | 0 | 0.02 | 0 | 0.02 | 0.01 | 0.07 | -0.01 | 2.2 | 0 | 12.6 | 11 | 11.3 | 11 | 

— patent US20250092136A1 (Hoffmann-La Roche, published 2025)
